± gives the standard deviation of the averaged measurements.
B1: library; a variant is named by its letters at N, in order (parent)
chain: GCUGUCACCGGUGCUUGGUACGUUAUAUUCAGCCGGUCUGAUGAGUCUNNNNNNAGACGAAACAGC

What was measured:
(6R,S)-folinic acid [1] = variants of: B1; assay: normalized RNA/DNA level without ligand (relative to sTRSVctl = 100) (log10 (% of sTRSVctl)); HEK293T overexpressing SLC46A1; higher = less ribozyme self-cleavage, higher mRNA level; details: without (6R,S)-folinic acid; ligand present: no
In short: (§1)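 Ribozyme switch library plasmids linked to reporters were introduced into HEK293T cells at 4 µg per 6-well well, with ligand, if any, added 1 h before. Total RNA was extracted with EDTA 72 h later, reverse-transcribed, amplified, barcoded and sequenced. RNA level was computed from RNA over DNA reads relative to a spiked-in non-cleaving sequence or the top sequences, then scaled and log-transformed. The top set was 25 sequences, values were ×100 and log10, and the cutoff was ≥100 DNA reads.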

(6R,S)-folinic acid [2] = variants of: B1; assay: normalized RNA/DNA level with ligand (relative to sTRSVctl = 100) (log10 (% of sTRSVctl)); HEK293T overexpressing SLC46A1; ligand concentration (+) RNA-Seq: 6 mM; higher = less ribozyme self-cleavage, higher mRNA level; details: with (6R,S)-folinic acid; ligand present: yes
In short: as §1

Variant	normalized RNA/DNA level without ligand (log10) ((6R,S)-folinic acid [1])	normalized RNA/DNA level with ligand (log10) ((6R,S)-folinic acid [2])
GCUGUCACCGGUGCUUGGUACGUUAUAUUCAGCCGGUCUGAUGAGUCUACUAAUAGACGAAACAGC [ACUAAU]	1.985 ± 0.007	2.01 ± 0.03
GCUGUCACCGGUGCUUGGUACGUUAUAUUCAGCCGGUCUGAUGAGUCUCCUACUAGACGAAACAGC [CCUACU]	2.062 ± 0.0069	2.04 ± 0.0079
GCUGUCACCGGUGCUUGGUACGUUAUAUUCAGCCGGUCUGAUGAGUCUCCUACCAGACGAAACAGC [CCUACC]	2.0594 ± 0.00016	2.04 ± 0.041
GCUGUCACCGGUGCUUGGUACGUUAUAUUCAGCCGGUCUGAUGAGUCUCCUACGAGACGAAACAGC [CCUACG]	2.072 ± 0.0081	2.0351 ± 0.0014
GCUGUCACCGGUGCUUGGUACGUUAUAUUCAGCCGGUCUGAUGAGUCUUCUAAGAGACGAAACAGC [UCUAAG]	1.815 ± 0.014	2 ± 0.045
GCUGUCACCGGUGCUUGGUACGUUAUAUUCAGCCGGUCUGAUGAGUCUUCUAAUAGACGAAACAGC [UCUAAU]	1.974 ± 0.0063	2.005 ± 0.0055
GCUGUCACCGGUGCUUGGUACGUUAUAUUCAGCCGGUCUGAUGAGUCUACUAGGAGACGAAACAGC [ACUAGG]	1.912 ± 0.015	1.99 ± 0.038
GCUGUCACCGGUGCUUGGUACGUUAUAUUCAGCCGGUCUGAUGAGUCUACUAGUAGACGAAACAGC [ACUAGU]	2.02 ± 0.02	2.05 ± 0.026
GCUGUCACCGGUGCUUGGUACGUUAUAUUCAGCCGGUCUGAUGAGUCUACUAGCAGACGAAACAGC [ACUAGC]	2 ± 0.011	2.02 ± 0.025
GCUGUCACCGGUGCUUGGUACGUUAUAUUCAGCCGGUCUGAUGAGUCUACUAGAAGACGAAACAGC [ACUAGA]	1.969 ± 0.014	2.01 ± 0.039
GCUGUCACCGGUGCUUGGUACGUUAUAUUCAGCCGGUCUGAUGAGUCUCCUAUAAGACGAAACAGC [CCUAUA]	2.029 ± 0.0081	2.01 ± 0.033
GCUGUCACCGGUGCUUGGUACGUUAUAUUCAGCCGGUCUGAUGAGUCUCCUAUGAGACGAAACAGC [CCUAUG]	2.04 ± 0.031	2.06 ± 0.028
GCUGUCACCGGUGCUUGGUACGUUAUAUUCAGCCGGUCUGAUGAGUCUCCUAUCAGACGAAACAGC [CCUAUC]	2.1 ± 0.023	2.0649 ± 0.0011
GCUGUCACCGGUGCUUGGUACGUUAUAUUCAGCCGGUCUGAUGAGUCUUCUAGCAGACGAAACAGC [UCUAGC]	2.03 ± 0.024	2.02 ± 0.051
GCUGUCACCGGUGCUUGGUACGUUAUAUUCAGCCGGUCUGAUGAGUCUUCUAGUAGACGAAACAGC [UCUAGU]	1.984 ± 0.0028	2.04 ± 0.032
GCUGUCACCGGUGCUUGGUACGUUAUAUUCAGCCGGUCUGAUGAGUCUUCUAGAAGACGAAACAGC [UCUAGA]	2.05 ± 0.024	2.043 ± 0.0037
GCUGUCACCGGUGCUUGGUACGUUAUAUUCAGCCGGUCUGAUGAGUCUUCUAGGAGACGAAACAGC [UCUAGG]	1.982 ± 0.015	2.05 ± 0.026
GCUGUCACCGGUGCUUGGUACGUUAUAUUCAGCCGGUCUGAUGAGUCUUCUAUCAGACGAAACAGC [UCUAUC]	2.07 ± 0.024	2.062 ± 0.0087
GCUGUCACCGGUGCUUGGUACGUUAUAUUCAGCCGGUCUGAUGAGUCUUCUAUAAGACGAAACAGC [UCUAUA]	2 ± 0.032	2.04 ± 0.025
GCUGUCACCGGUGCUUGGUACGUUAUAUUCAGCCGGUCUGAUGAGUCUACUACUAGACGAAACAGC [ACUACU]	2.022 ± 0.02	2.041 ± 0.0021

Source: the supplement of paper PMC6757056
